Consider 14 molecules from publication PMC11098746 (2024).

B1: ADP120 (protein)
chain: MAGVGAGPLRAMGRQALLLLALCATGAQGLYFHIGETEKRCFIEEIPDETMVIGNYRTQMWDKQKEVFLPSTPGLGMHVEVKDPDGKVVLSRQYGSEGRFTFTSHTPGDHQICLHSNSTRMALFAGGKLRVHLDIQVGEHANNYPEIAAKDKLTELQLRARQLLDQVEQIQKEQDYQRYREERFRLTSESTNQR
modifications: bait human Fc-tagged dimer
B2: ADP296 (protein)
chain: MARERGALSRASRALRLAPFVYLLLIQTDPLEGVNITSPVRLIHGTVGKSALLSVQYSSTSSDRPVVKWQLKRDKPVTVVQSIGTEVIGTLRPDYRDRIRLFENGSLLLSDLQLADEGTYEVEISITDDTFTGEKTINLTVDVPISRPQVLVASTTVLELSEAFTLNCSHENGTKPSYTWLKDGKPLLNDSRMLLSPDQKVLTITRVLMEDDDLYSCMVENPISQGRSLPVKITVYRRSS
modifications: bait human Fc-tagged dimer
B3: ADP146 (protein)
chain: MVAWRSAFLVCLAFSLATLVQRGSGDFDDFNLEDAVKETSSVKQPWDHTTTTTTNRPGTTRAPAKPPGSGLDLADALDDQDDGRRKPGIGGRERWNHVTTTTKRPVTTRAPANTLGNDFDLADALDDRNDRDDGRRKPIAGGGGFSDKDLEDIVGGGEYKPDKGKGDGRYGSNDDPGSGMVAEP
modifications: bait human Fc-tagged dimer
B4: ADP279 (protein)
chain: RMAHKFITGKLVEDERSDREETESSEGEEAAAGGGAKSRPLANGHPILNNNHRKND
modifications: also: human Fc-tagged dimer
B5: ADP138 (protein)
chain: MAGKSSTRAVLLLLGIQLTALWPIAAVEIYTSRVLEAVNGTDARLKCTFSSFAPVGDALTVTWNFRPLDGGPEQFVFYYHIDPFQPMSGRFKDRVSWDGNPERYDASILLWKLQFDDNGTYTCQVKNPPDVDGVIGEIRLSVVHTVRFS
modifications: bait human Fc-tagged dimer
B6: ADP341 (protein)
chain: MEAAVAAPRPRLLLLVLAAAAAAAAALLPGATALQCFCHLCTKDNFTCVTDGLCFVSVTETTDKVIHNSMCIAEIDLIPRDRPFVCAPSSKTGSVTTTYCCNQDHCNKIELPTTVKSSPGLGP
modifications: bait human Fc-tagged dimer
B7: ADP261 (protein)
chain: KWETKNCSVSSTNANDITQSLTGKGNDSEEEMRFQEVFMEHMSNMEKRIQHILDMEANLMDTEHFQNFSMTTDQRFNDILLQLSTLFSSVQGHGNAIDEISKSLISLNTTLLDLQLNIENLNGKIQENTFKQQEEISKLEERVYNVSAEIMAMKEEQVHLEQEIKGEVKVLNNITNDLRLKDWEHSQTLRNITLIQGPPGPPGEKGDRGPTGESGPRGFPGPIGPPGLKGDRGAIGFPGSRGLPGYAGRPGNSGPKGQKGEKGSGNTLTPFTKVRLVGGSGPHEGRVEILHSGQWGTICDDRWEVRVGQVVCRSLGYPGVQAVHKAAHFGQGTGPIWLNEVFCFGRESSIEECKIRQWGTRACSHSEDAGVTCTL
modifications: bait human Fc-tagged dimer
B8: ADP155 (protein)
chain: MAPARLFALLLFFVGGVAESIRETEVIDPQDLLEGRYFSGALPDDEDVVGPGQESDDFELSGSGDLDDLEDSMIGPEVVHPLVPLDNHIPERAGSGSQVPTEPKKLEENEVIPKRISPVEESEDVSNKVSMSSTVQGSNIFERTEV
modifications: bait human Fc-tagged dimer
B9: ADP374 (protein)
chain: MKETLYDEVLAKQKREQKLIPTKTDKKKAEKKKNKKKEIQNGNLHESDSESVPRDFKLSDALAVEDDQVAPVPLNVVETSSSVRERKKKEKKQKPVLEEQVIKESDASKIPGKKVEPVPVTKQPTPPSEAAASKKKPGQKKSKNGSDDQDKKVETLMVPSKRQEALPLHQETKQESGSGKKKASSKKQKTENVFVDEPLIHATTYIPLMDNADSSPVVDKREVIDLLKPDQVEGIQKSGTKKLKTETDKENAEVKFKDFLLSLKTMMFSEDEALCVVDLLKEKSGVIQDALKKSSKGELTTLIHQLQEKDKLLAAVKEDAAATKDRCKQLTQEMMTEKERSNVVITRMKDRIGTLEKEHNVFQNKIHVSYQETQQMQMKFQQVREQMEAEIAHLKQENGILRDAVSNTTNQLESKQSAELNKLRQDYARLVNELTEKTGKLQQEEVQKKNAEQAATQLKVQLQEAERRWEEVQSYIRKRTAEHEAAQQDLQSKFVAKENEVQSLHSKLTDTLVSKQQLEQRLMQLMESEQKRVNKEESLQMQVQDILEQNEALKAQIQQFHSQIAAQTSASVLAEELHKVIAEKDKQIKQTEDSLASERDRLTSKEEELKDIQNMNFLLKAEVQKLQALANEQAAAAHELEKMQQSVYVKDDKIRLLEEQLQHEISNKMEEFKILNDQNKALKSEVQKLQTLVSEQPNKDVVEQMEKCIQEKDEKLKTVEELLETGLIQVATKEEELNAIRTENSSLTKEVQDLKAKQNDQVSFASLVEELKKVIHEKDGKIKSVEELLEAELLKVANKEKTVQDLKQEIKALKEEIGNVQLEKAQQLSITSKVQELQNLLKGKEEQMNTMKAVLEEKEKDLANTGKWLQDLQEENESLKAHVQEVAQHNLKEASSASQFEELEIVLKEKENELKRLEAMLKERESDLSSKTQLLQDVQDENKLFKSQIEQLKQQNYQQASSFPPHEELLKVISEREKEISGLWNELDSLKDAVEHQRKKNNDLREKNWEAMEALASTEKMLQDKVNKTSKERQQQVEAVELEAKEVLKKLFPKVSVPSNLSYGEWLHGFEKKAKECMAGTSGSEEVKVLEHKLKEADEMHTLLQLECEKYKSVLAETEGILQKLQRSVEQEENKWKVKVDESHKTIKQMQSSFTSSEQELERLRSENKDIENLRREREHLEMELEKAEMERSTYVTEVRELKDLLTELQKKLDDSYSEAVRQNEELNLLKAQLNETLTKLRTEQNERQKVAGDLHKAQQSLELIQSKIVKAAGDTTVIENSDVSPETESSEKETMSVSLNQTVTQLQQLLQAVNQQLTKEKEHYQVLE
modifications: bait human Fc-tagged dimer
B10: ADP354 (protein)
chain: MGPWSRSLSALLLLLQVSSWLCQEPEPCHPGFDAESYTFTVPRRHLERGRVLGRVNFEDCTGRQRTAYFSLDTRFKVGTDGVITVKRPLRFHNPQIHFLVYAWDSTYRKFSTKVTLNTVGHHHRPPPHQASVSGIQAELLTFPNSSPGLRRQKRDWVIPPISCPENEKGPFPKNLVQIKSNKDKEGKVFYSITGQGADTPPVGVFIIERETGWLKVTEPLDRERIATYTLFSHAVSSNGNAVEDPMEILITVTDQNDNKPEFTQEVFKGSVMEGALPGTSVMEVTATDADDDVNTYNAAIAYTILSQDPELPDKNMFTINRNTGVISVVTTGLDRESFPTYTLVVQAADLQGEGLSTTATAVITVTDTNDNPPIFNPTTYKGQVPENEANVVITTLKVTDADAPNTPAWEAVYTILNDDGGQFVVTTNPVNNDGILKTAKGLDFEAKQQYILHVAVTNVVPFEVSLTTSTATVTVDVLDVNEAPIFVPPEKRVEVSEDFGVGQEITSYTAQEPDTFMEQKITYRIWRDTANWLEINPDTGAISTRAELDREDFEHVKNSTYTALIIATDNGSPVATGTGTLLLILSDVNDNAPIPEPRTIFFCERNPKPQVINIIDADLPPNTSPFTAELTHGASANWTIQYNDPTQESIILKPKMALEVGDYKINLKLMDNQNKDQVTTLEVSVCDCEGAAGVCRKAQPVEAGLQIP
modifications: bait human Fc-tagged dimer
B11: ADP325 (protein)
chain: MAAAQEADGARSAVVAAGGGSSGQVTSNGSIGRDPPAETQPQNPPAQPAPNAWQVIKGVLFRIFIIWAISSWFRRGPAPQDQAGPGGAPRVASRNLFPKDTLMNLHVYISEHEHFTDFNATSALFWEQHDLVYGDWTSGENSDGCYEHFAELDIPQSVQQNGSIYIHVYFTKSGFHPDPRQKALYRRLATVHMSRMINKYKRRRFQKTKNLLTGETEADPEMIKRAEDYGPVEVISHWHPNITINIVDDHTPWVKGSVPPPLDQYVKFDAVSGDYYPIIYFNDYWNLQKDYYPINESLASLPLRVSFCPLSLWRWQLYAAQSTKSPWNFLGDELYEQSDEEQDSVKVALLETNP
modifications: bait human Fc-tagged dimer
B12: ADP379 (protein)
chain: PCPDRPASQRMWRIDYSAAVIYDFLAVDDINGDRIQDVLFLYKNTNSSNNFSRSCVDEGFSSPCTFAAAVSGANGSTLWERPVAQDVALVECAVPQPRGSEAPSACILVGRPSSFIAVNLFTGETLWNHSSSFSGNASILSPLLQVPDVDGDGAPDLLVLTQEREEVSGHLYSGSTGHQIGLRGSLGVDGESGFLLHVTRTGAHYILFPCASSLCGCSVKGLYEKVTGSGGPFKSDPHWESMLNATTRRMLSHSSGAVRYLMHVPGNAGADVLLVGSEAFVLLDGQELTPRWTPKAAHVLRKPIFGRYKPDTLAVAVENGTGTDRQILFLDLGTGAVLCSLALPSLPGGPLSASLPTADHRSAFFFWGLHELGSTSETETGEARHSLYMFHPTLPRVLLELANVSTHIVAFDAVLFEPSRHAAYILLTGPADSEAPGLVSVIKHKVRDLVPSSRVVRLGEGGPDSDQAIRDRFSRLRYQSEA
modifications: bait human Fc-tagged dimer
B13: ADP317 (protein)
chain: MGSWALLWPPLLFTGLLVRPPGTMAQAQYCSVNKDIFEVEENTNVTEPLVDIHVPEGQEVTLGALSTPFAFRIQGNQLFLNVTPDYEEKSLLEAQLLCQSGGTLVTQLRVFVSVLDVNDNAPEFPFKTKEIRVEEDTKVNSTVIPETQLQAEDRDKDDILFYTLQEMTAGASDYFSLVSVNRPALRLDRPLDFYERPNMTFWLLVRDTPGENVEPSHTATATLVLNVVPADLRPPWFLPCTFSDGYVCIQAQYHGAVPTGHILPSPLVLRPGPIYAEDGDRGINQPIIYSIFRGNVNGTFIIHPDSGNLTVARSVPSPMTFLLLVKGQQADLARYSVTQVTVEAVAAAGSPPRFPQRLYRGTVARGAGAGVVVKDAAAPSQPLRIQAQDPEFSDLNSAITYRITNHSHFRMEGEVVLTTTTLAQAGAFYAEVEAHNTVTSGTATTVIEIQVSEQEPPSTDVPPSPEAGGTTGPWTSTTSEVPRPPEPSQGPSTTSSGGGTGPHPPSGTTLRPPTSSTPGGPPGAENSTSHQPATPGGDTAQTPKPGTSQPMPPGVGTSTSHQPATPSGGTAQTPEPGTSQPMPPSMGTSTSHQPATPGGGTAQTPEAGTSQPMPPGMGTSTSHQPTTPGGGTAQTPEPGTSQPMPLSKSTPSSGGGPSEDKRFSVVDMA
modifications: bait human Fc-tagged dimer
B14: ADP352 (protein)
chain: MGHLSAPLHRVRVPWQGLLLTASLLTFWNPPTTAQLTTESMPFNVAEGKEVLLLVHNLPQQLFGYSWYKGERVDGNRQIVGYAIGTQQATPGPANSGRETIYPNASLLIQNVTQNDTGFYTLQVIKSDLVNEEATGQFHVYPELPKPSISSNNSNPVEDKDAVAFTCEPETQDTTYLWWINNQSLPVSPRLQLSNGNRTLTLLSVTRNDTGPYECEIQNPVSANRSDPVTLNVTYGPDTPTISPSDTYYRPGANLSLSCYAASNPPAQYSWLINGTFQQSTQELFIPNITVNNSGSYTCHANNSVTGCNRTTVKTIIVTELSPVVAKPQIKASKTTVTGDKDSVNLTCSTNDTGISIRWFFKNQSLPSSERMKLSQGNTTLSINPVKREDAGTYWCEVFNPISKNQSDPIMLNVNYNALPQENGLSPG
modifications: bait human Fc-tagged dimer

No end group written: not given here.

The target in the test is Circumsporozoite protein (CSP) (Plasmodium falciparum (isolate 3D7), UniProt Q7K740). As to the kind of experiment: AVEXIS screen signal:noise (double-corrected).
Circumsporozoite protein (CSP), sequence (Q7K740 19-374): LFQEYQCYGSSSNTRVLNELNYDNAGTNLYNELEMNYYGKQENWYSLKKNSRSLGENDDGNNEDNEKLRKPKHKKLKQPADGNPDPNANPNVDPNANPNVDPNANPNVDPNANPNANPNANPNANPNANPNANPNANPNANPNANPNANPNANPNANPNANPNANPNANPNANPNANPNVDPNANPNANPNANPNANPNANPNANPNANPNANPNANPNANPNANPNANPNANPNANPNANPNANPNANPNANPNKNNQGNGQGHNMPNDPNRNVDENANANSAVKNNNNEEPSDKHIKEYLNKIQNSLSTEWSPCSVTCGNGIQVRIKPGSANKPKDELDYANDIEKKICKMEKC
Consider B1, for which the binding score was 0.957. With B2, the binding score was determined as 0.997. B3 gave a binding score of 1.36. For B4, the binding score came out at 1.03. B5 yielded a binding score of 0.831. Take B6: the binding score amounted to 1.43. B7 had a binding score of 0.837. With B8 the figure was 0.582; with B9, 0.547. Consider B10, for which the binding score is 0.796. As to B11, the binding score stood at 1.73. B12 gave a binding score of 2.44.

The molecule B13 had a binding score of 2.47.

The molecule B14 displayed a binding score of 1.31.
